# Source: patent US20260070987A1
# Target: equine FcRn (large alpha subunit p51) in complex with equine beta-2-microglobulin (equine) (UniProt F6XZ61)
# Assay: SPR (Biacore), pH 6
# Sequence of UniProt F6XZ61 (F6XZ61 entry or part of it, one chain of several): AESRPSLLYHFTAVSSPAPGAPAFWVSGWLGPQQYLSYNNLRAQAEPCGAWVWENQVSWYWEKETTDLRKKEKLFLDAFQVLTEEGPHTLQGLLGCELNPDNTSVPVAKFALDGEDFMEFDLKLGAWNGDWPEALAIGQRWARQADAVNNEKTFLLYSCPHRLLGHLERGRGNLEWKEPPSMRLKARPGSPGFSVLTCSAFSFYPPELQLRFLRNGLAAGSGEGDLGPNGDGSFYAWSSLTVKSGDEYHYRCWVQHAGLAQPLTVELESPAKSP
row,Binder,Kd [nM]
1,"equine IgG7 A426W mutant (antibody, part only; not given: variable domains, not shown: another chain or arm of the molecule) constant: ASTTAPKVFPLASHSAATSGSTVALGCLVSSYFPEPVTVSWNSGALTSGVHTFPSVLQSSGLYSLSSMVTVPASSLKSQTYICNVAHPASSTKVDKKIVIKECGGCPTCPECLSVGPSVFIFPPKPKDVLMISRTPTVTCVVVDVGHDFPDVQFNWYVDGVETHTATTEPKQEQNNSTYRVVSILAIQHKDWLSGKEFKCKVNNQALPAPVQKTISKPTGQPREPQVYVLAPHRDELSKNKVSVTCLVKDFYPTDIDIEWKSNGQPEPETKYSTTPAQLDSDGSYFLYSKLTVETNRWQQGTTFTCWVMHEALHNHYTEKSVSKSPGK",24.1
2,"equine IgG7 A426Y mutant (antibody, part only; not given: variable domains, not shown: another chain or arm of the molecule) constant: ASTTAPKVFPLASHSAATSGSTVALGCLVSSYFPEPVTVSWNSGALTSGVHTFPSVLQSSGLYSLSSMVTVPASSLKSQTYICNVAHPASSTKVDKKIVIKECGGCPTCPECLSVGPSVFIFPPKPKDVLMISRTPTVTCVVVDVGHDFPDVQFNWYVDGVETHTATTEPKQEQNNSTYRVVSILAIQHKDWLSGKEFKCKVNNQALPAPVQKTISKPTGQPREPQVYVLAPHRDELSKNKVSVTCLVKDFYPTDIDIEWKSNGQPEPETKYSTTPAQLDSDGSYFLYSKLTVETNRWQQGTTFTCYVMHEALHNHYTEKSVSKSPGK",21.1
3,"equine IgG7 M428C mutant (antibody, part only; not given: Variable domains, not shown: another chain or arm of the molecule) constant: ASTTAPKVFPLASHSAATSGSTVALGCLVSSYFPEPVTVSWNSGALTSGVHTFPSVLQSSGLYSLSSMVTVPASSLKSQTYICNVAHPASSTKVDKKIVIKECGGCPTCPECLSVGPSVFIFPPKPKDVLMISRTPTVTCVVVDVGHDFPDVQFNWYVDGVETHTATTEPKQEQNNSTYRVVSILAIQHKDWLSGKEFKCKVNNQALPAPVQKTISKPTGQPREPQVYVLAPHRDELSKNKVSVTCLVKDFYPTDIDIEWKSNGQPEPETKYSTTPAQLDSDGSYFLYSKLTVETNRWQQGTTFTCAVCHEALHNHYTEKSVSKSPGK",14600
4,"equine IgG7 M428D mutant (antibody, part only; not given: variable domains, not shown: another chain or arm of the molecule) constant: ASTTAPKVFPLASHSAATSGSTVALGCLVSSYFPEPVTVSWNSGALTSGVHTFPSVLQSSGLYSLSSMVTVPASSLKSQTYICNVAHPASSTKVDKKIVIKECGGCPTCPECLSVGPSVFIFPPKPKDVLMISRTPTVTCVVVDVGHDFPDVQFNWYVDGVETHTATTEPKQEQNNSTYRVVSILAIQHKDWLSGKEFKCKVNNQALPAPVQKTISKPTGQPREPQVYVLAPHRDELSKNKVSVTCLVKDFYPTDIDIEWKSNGQPEPETKYSTTPAQLDSDGSYFLYSKLTVETNRWQQGTTFTCAVDHEALHNHYTEKSVSKSPGK",2000
5,"equine IgG7 M428E mutant (antibody, part only; not given: variable domains, not shown: another chain or arm of the molecule) constant: ASTTAPKVFPLASHSAATSGSTVALGCLVSSYFPEPVTVSWNSGALTSGVHTFPSVLQSSGLYSLSSMVTVPASSLKSQTYICNVAHPASSTKVDKKIVIKECGGCPTCPECLSVGPSVFIFPPKPKDVLMISRTPTVTCVVVDVGHDFPDVQFNWYVDGVETHTATTEPKQEQNNSTYRVVSILAIQHKDWLSGKEFKCKVNNQALPAPVQKTISKPTGQPREPQVYVLAPHRDELSKNKVSVTCLVKDFYPTDIDIEWKSNGQPEPETKYSTTPAQLDSDGSYFLYSKLTVETNRWQQGTTFTCAVEHEALHNHYTEKSVSKSPGK",39.8
6,"equine IgG7 M428F mutant (antibody, part only; not given: variable domains, not shown: another chain or arm of the molecule) constant: ASTTAPKVFPLASHSAATSGSTVALGCLVSSYFPEPVTVSWNSGALTSGVHTFPSVLQSSGLYSLSSMVTVPASSLKSQTYICNVAHPASSTKVDKKIVIKECGGCPTCPECLSVGPSVFIFPPKPKDVLMISRTPTVTCVVVDVGHDFPDVQFNWYVDGVETHTATTEPKQEQNNSTYRVVSILAIQHKDWLSGKEFKCKVNNQALPAPVQKTISKPTGQPREPQVYVLAPHRDELSKNKVSVTCLVKDFYPTDIDIEWKSNGQPEPETKYSTTPAQLDSDGSYFLYSKLTVETNRWQQGTTFTCAVFHEALHNHYTEKSVSKSPGK",23.9
7,"equine IgG7 M428G mutant (antibody, part only; not given: variable domains, not shown: another chain or arm of the molecule) constant: ASTTAPKVFPLASHSAATSGSTVALGCLVSSYFPEPVTVSWNSGALTSGVHTFPSVLQSSGLYSLSSMVTVPASSLKSQTYICNVAHPASSTKVDKKIVIKECGGCPTCPECLSVGPSVFIFPPKPKDVLMISRTPTVTCVVVDVGHDFPDVQFNWYVDGVETHTATTEPKQEQNNSTYRVVSILAIQHKDWLSGKEFKCKVNNQALPAPVQKTISKPTGQPREPQVYVLAPHRDELSKNKVSVTCLVKDFYPTDIDIEWKSNGQPEPETKYSTTPAQLDSDGSYFLYSKLTVETNRWQQGTTFTCAVGHEALHNHYTEKSVSKSPGK",96.9

# Second part, the binder after the results:
row,Kd [nM],Binder
1,165,"equine IgG7 M428H mutant (antibody, part only; not given: variable domains, not shown: another chain or arm of the molecule) constant: ASTTAPKVFPLASHSAATSGSTVALGCLVSSYFPEPVTVSWNSGALTSGVHTFPSVLQSSGLYSLSSMVTVPASSLKSQTYICNVAHPASSTKVDKKIVIKECGGCPTCPECLSVGPSVFIFPPKPKDVLMISRTPTVTCVVVDVGHDFPDVQFNWYVDGVETHTATTEPKQEQNNSTYRVVSILAIQHKDWLSGKEFKCKVNNQALPAPVQKTISKPTGQPREPQVYVLAPHRDELSKNKVSVTCLVKDFYPTDIDIEWKSNGQPEPETKYSTTPAQLDSDGSYFLYSKLTVETNRWQQGTTFTCAVHHEALHNHYTEKSVSKSPGK"
2,240,"equine IgG7 M428I mutant (antibody, part only; not given: variable domains, not shown: another chain or arm of the molecule) constant: ASTTAPKVFPLASHSAATSGSTVALGCLVSSYFPEPVTVSWNSGALTSGVHTFPSVLQSSGLYSLSSMVTVPASSLKSQTYICNVAHPASSTKVDKKIVIKECGGCPTCPECLSVGPSVFIFPPKPKDVLMISRTPTVTCVVVDVGHDFPDVQFNWYVDGVETHTATTEPKQEQNNSTYRVVSILAIQHKDWLSGKEFKCKVNNQALPAPVQKTISKPTGQPREPQVYVLAPHRDELSKNKVSVTCLVKDFYPTDIDIEWKSNGQPEPETKYSTTPAQLDSDGSYFLYSKLTVETNRWQQGTTFTCAVIHEALHNHYTEKSVSKSPGK"
3,63.5,"equine IgG7 M428K mutant (antibody, part only; not given: variable domains, not shown: another chain or arm of the molecule) constant: ASTTAPKVFPLASHSAATSGSTVALGCLVSSYFPEPVTVSWNSGALTSGVHTFPSVLQSSGLYSLSSMVTVPASSLKSQTYICNVAHPASSTKVDKKIVIKECGGCPTCPECLSVGPSVFIFPPKPKDVLMISRTPTVTCVVVDVGHDFPDVQFNWYVDGVETHTATTEPKQEQNNSTYRVVSILAIQHKDWLSGKEFKCKVNNQALPAPVQKTISKPTGQPREPQVYVLAPHRDELSKNKVSVTCLVKDFYPTDIDIEWKSNGQPEPETKYSTTPAQLDSDGSYFLYSKLTVETNRWQQGTTFTCAVKHEALHNHYTEKSVSKSPGK"
4,10.5,"equine IgG7 M428L mutant (antibody, part only; not given: Variable domains, not shown: another chain or arm of the molecule) constant: ASTTAPKVFPLASHSAATSGSTVALGCLVSSYFPEPVTVSWNSGALTSGVHTFPSVLQSSGLYSLSSMVTVPASSLKSQTYICNVAHPASSTKVDKKIVIKECGGCPTCPECLSVGPSVFIFPPKPKDVLMISRTPTVTCVVVDVGHDFPDVQFNWYVDGVETHTATTEPKQEQNNSTYRVVSILAIQHKDWLSGKEFKCKVNNQALPAPVQKTISKPTGQPREPQVYVLAPHRDELSKNKVSVTCLVKDFYPTDIDIEWKSNGQPEPETKYSTTPAQLDSDGSYFLYSKLTVETNRWQQGTTFTCAVLHEALHNHYTEKSVSKSPGK"
5,20,"equine IgG7 M428Q mutant (antibody, part only; not given: variable domains, not shown: another chain or arm of the molecule) constant: ASTTAPKVFPLASHSAATSGSTVALGCLVSSYFPEPVTVSWNSGALTSGVHTFPSVLQSSGLYSLSSMVTVPASSLKSQTYICNVAHPASSTKVDKKIVIKECGGCPTCPECLSVGPSVFIFPPKPKDVLMISRTPTVTCVVVDVGHDFPDVQFNWYVDGVETHTATTEPKQEQNNSTYRVVSILAIQHKDWLSGKEFKCKVNNQALPAPVQKTISKPTGQPREPQVYVLAPHRDELSKNKVSVTCLVKDFYPTDIDIEWKSNGQPEPETKYSTTPAQLDSDGSYFLYSKLTVETNRWQQGTTFTCAVQHEALHNHYTEKSVSKSPGK"
6,1.2,"equine IgG7 M428R mutant (antibody, part only; not given: variable domains, not shown: another chain or arm of the molecule) constant: ASTTAPKVFPLASHSAATSGSTVALGCLVSSYFPEPVTVSWNSGALTSGVHTFPSVLQSSGLYSLSSMVTVPASSLKSQTYICNVAHPASSTKVDKKIVIKECGGCPTCPECLSVGPSVFIFPPKPKDVLMISRTPTVTCVVVDVGHDFPDVQFNWYVDGVETHTATTEPKQEQNNSTYRVVSILAIQHKDWLSGKEFKCKVNNQALPAPVQKTISKPTGQPREPQVYVLAPHRDELSKNKVSVTCLVKDFYPTDIDIEWKSNGQPEPETKYSTTPAQLDSDGSYFLYSKLTVETNRWQQGTTFTCAVRHEALHNHYTEKSVSKSPGK"
7,5.8,"equine IgG7 M428S mutant (antibody, part only; not given: variable domains, not shown: another chain or arm of the molecule) constant: ASTTAPKVFPLASHSAATSGSTVALGCLVSSYFPEPVTVSWNSGALTSGVHTFPSVLQSSGLYSLSSMVTVPASSLKSQTYICNVAHPASSTKVDKKIVIKECGGCPTCPECLSVGPSVFIFPPKPKDVLMISRTPTVTCVVVDVGHDFPDVQFNWYVDGVETHTATTEPKQEQNNSTYRVVSILAIQHKDWLSGKEFKCKVNNQALPAPVQKTISKPTGQPREPQVYVLAPHRDELSKNKVSVTCLVKDFYPTDIDIEWKSNGQPEPETKYSTTPAQLDSDGSYFLYSKLTVETNRWQQGTTFTCAVSHEALHNHYTEKSVSKSPGK"
8,6.6,"equine IgG7 M428W mutant (antibody, part only; not given: variable domains, not shown: another chain or arm of the molecule) constant: ASTTAPKVFPLASHSAATSGSTVALGCLVSSYFPEPVTVSWNSGALTSGVHTFPSVLQSSGLYSLSSMVTVPASSLKSQTYICNVAHPASSTKVDKKIVIKECGGCPTCPECLSVGPSVFIFPPKPKDVLMISRTPTVTCVVVDVGHDFPDVQFNWYVDGVETHTATTEPKQEQNNSTYRVVSILAIQHKDWLSGKEFKCKVNNQALPAPVQKTISKPTGQPREPQVYVLAPHRDELSKNKVSVTCLVKDFYPTDIDIEWKSNGQPEPETKYSTTPAQLDSDGSYFLYSKLTVETNRWQQGTTFTCAVWHEALHNHYTEKSVSKSPGK"
9,36.4,"equine IgG7 N434A mutant (antibody, part only; not given: variable domains, not shown: another chain or arm of the molecule) constant: ASTTAPKVFPLASHSAATSGSTVALGCLVSSYFPEPVTVSWNSGALTSGVHTFPSVLQSSGLYSLSSMVTVPASSLKSQTYICNVAHPASSTKVDKKIVIKECGGCPTCPECLSVGPSVFIFPPKPKDVLMISRTPTVTCVVVDVGHDFPDVQFNWYVDGVETHTATTEPKQEQNNSTYRVVSILAIQHKDWLSGKEFKCKVNNQALPAPVQKTISKPTGQPREPQVYVLAPHRDELSKNKVSVTCLVKDFYPTDIDIEWKSNGQPEPETKYSTTPAQLDSDGSYFLYSKLTVETNRWQQGTTFTCAVMHEALHAHYTEKSVSKSPGK"
